Test results published in publication PMC11347169.

What was measured:
[1] = target: Simian virus 40 large T antigen (L-Tag) (simian virus 40) (UniProt P03070)
[2] = target: Human wild-type DNA polymerase δ (WT Pol δ) (human) (UniProt P28340); assay: MST; His6-tagged Pol δ labelled with RED-Tris-NTA, 20 nM final; L-Tag titrated in 16 concentrations beginning with 500 nM; PBS-T buffer; incubated 40 min at 37°C; Monolith NT.115, premium-coated capillaries
[3] = target: Human wild-type DNA polymerase δ (WT Pol δ) (human) (UniProt P28340)

Human fork protection complex (FPC): Claspin, TIMELESS, Tipin (from UniProt Q9HAW4 1-1339; Q9UNS1 1-1208; Q9BVW5 1-301)
saturation concentration of FPC for stimulating L-Tag unwinding in the bulk assay (25 nM L-Tag, 0.5 nM forked DNA) [1]: < 8 nM

Human mini-chromosome maintenance protein 10 (Mcm10) (from UniProt Q7L590 1-875) (natural protein)
saturation concentration of Mcm10 for stimulating L-Tag unwinding in the bulk assay (25 nM L-Tag, 0.5 nM forked DNA) [1]: < 8 nM

Simian virus 40 large T antigen (L-Tag) (from UniProt P03070 1-708) (enzyme)
Kd [2]: 6.7 nM
lifetime of Pol δ–PCNA on DNA in single-molecule flow-stretching assays: primer extension alone against leading-strand synthesis with L-Tag [3]: 3 min
